Assay [1] concerns the target GST-βII-spectrin-1-4 (GST fusion of repeats 1-4 of βII-spectrin) (rat). Nature of the assay: SPR.
Assay [2] deals with MBP-αII-cardi+ (MBP fusion of repeats 18-21 of αII-spectrin with the 21-amino acid cardi+ insert) (rat). Kind of assay: far-Western, overlay or dot blot.

This passage reports Kd, binding relative to the αII-cardi− protein (blot overlay, densitometry) and fold lower binding (response units results from publication PMC3537504.

pKd: −log10 of the molar value.

“MBP-αII-cardi− (MBP fusion of repeats 18-21 of αII-spectrin without the cardi+ insert) (domain or fragment)” showed a pKd in assay [1] of 9.24. In assay [2], “GST-βII-spectrin-1-4 (GST fusion of repeats 1-4 of βII-spectrin) (domain or fragment)” yielded a binding relative to the αII-cardi− protein (blot overlay, densitometry) of 0.5 fold. For “MBP-αII-cardi+ (MBP fusion of repeats 18-21 of αII-spectrin with the 21-amino acid cardi+ insert) (domain or fragment)”, in assay [1], the pKd is 8.96 and the fold lower binding (response units at saturation) than MBP-αII-cardi− is 2 fold.
